Laboratory results from patent US20230406885A1, “CYCLIC PEPTIDES FOR TRAPPING INTERLEUKIN-1 BETA” (MERCK SHARP & DOHME LLC, priority 2022, published 2023).
*1 amine or outer side, *2 acyl side, *3 side chain or, on linkers, in order; H or OH if unused. [ ]: non-standard residue; d: D form. 3AzaPhe4AcPip = (S)-3-(6-(4-acetylpiperazin-1-yl)pyridin-3-yl)-2-aminopropanoic acid, CC(=O)N1CCN(c2ccc(C[C@H](N[*:1])C(=O)[*:2])cn2)CC1; Pro(trans-4-NH2) = O=C([C@@H]1C[C@@H](N[*:3])CN1[*:1])[*:2]; Trp(βS-Me,4-F) = C[C@@H](c1c[nH]c2cccc(F)c12)[C@H](N)C(=O)O; Bip(4'-COOH) = N[C@@H](Cc1ccc(-c2ccc(C(=O)O)cc2)cc1)C(=O)O; Phe(4-COOH) = N[C@@H](Cc1ccc(C(=O)O)cc1)C(=O)O; hTyr = N[C@@H](CCc1ccc(O)cc1)C(=O)O; dDab = NCC[C@@H](N)C(=O)O; dNMeA = CN[C@H](C)C(=O)O; Nva = CCC[C@H](N)C(=O)O

target: Recombinant human IL-1β (BioLegend 579404) (human, UniProt P01584 117-269); assay: cell-based or functional assay

Row | Binder | MRC5 IC50 [nM]
1 | cyclo([Bip(4'-COOH)]W[Phe(4-COOH)]G[Pro(trans-4-NH2)][Trp(βS-Me,4-F)]D[dNMeA]G[Bip(4'-COOH)]WL[dA][hTyr]) (SMILES CC(C)C[C@@H]1NC(=O)[C@H](Cc2c[nH]c3ccccc23)NC(=O)[C@H](Cc2ccc(-c3ccc(C(=O)O)cc3)cc2)NC(=O)CNC(=O)[C@@H](C)N(C)C(=O)[C@H](CC(=O)O)NC(=O)[C@H]([C@@H](C)c2c[nH]c3cccc(F)c23)NC(=O)[C@@H]2C[C@@H](N)CN2C(=O)CNC(=O)[C@H](Cc2ccc(C(=O)O)cc2)NC(=O)[C@H](Cc2c[nH]c3ccccc23)NC(=O)[C@H](Cc2ccc(-c3ccc(C(=O)O)cc3)cc2)NC(=O)[C@H](CCc2ccc(O)cc2)NC(=O)[C@@H](C)NC1=O) [SEQ ID NO: 78] | 0.0732
2 | cyclo([3AzaPhe4AcPip]W[Phe(4-COOH)]G[Pro(trans-4-NH2)][Trp(βS-Me,4-F)]D[dNMeA]G[Bip(4'-COOH)]WG[dDab][hTyr]) (SMILES CC(=O)N1CCN(c2ccc(C[C@@H]3NC(=O)[C@H](CCc4ccc(O)cc4)NC(=O)[C@@H](CCN)NC(=O)CNC(=O)[C@H](Cc4c[nH]c5ccccc45)NC(=O)[C@H](Cc4ccc(-c5ccc(C(=O)O)cc5)cc4)NC(=O)CNC(=O)[C@@H](C)N(C)C(=O)[C@H](CC(=O)O)NC(=O)[C@H]([C@@H](C)c4c[nH]c5cccc(F)c45)NC(=O)[C@@H]4C[C@@H](N)CN4C(=O)CNC(=O)[C@H](Cc4ccc(C(=O)O)cc4)NC(=O)[C@H](Cc4c[nH]c5ccccc45)NC3=O)cn2)CC1) [SEQ ID NO: 8] | 0.14
3 | cyclo([Bip(4'-COOH)]W[Phe(4-COOH)]G[Pro(trans-4-NH2)][Trp(βS-Me,4-F)]D[dNMeA]G[Bip(4'-COOH)]WG[dDab][hTyr]) (SMILES C[C@@H]1C(=O)NCC(=O)N[C@@H](Cc2ccc(-c3ccc(C(=O)O)cc3)cc2)C(=O)N[C@@H](Cc2c[nH]c3ccccc23)C(=O)NCC(=O)N[C@H](CCN)C(=O)N[C@@H](CCc2ccc(O)cc2)C(=O)N[C@@H](Cc2ccc(-c3ccc(C(=O)O)cc3)cc2)C(=O)N[C@@H](Cc2c[nH]c3ccccc23)C(=O)N[C@@H](Cc2ccc(C(=O)O)cc2)C(=O)NCC(=O)N2C[C@H](N)C[C@H]2C(=O)N[C@@H]([C@@H](C)c2c[nH]c3cccc(F)c23)C(=O)N[C@@H](CC(=O)O)C(=O)N1C) [SEQ ID NO: 77] | 0.0601

The remaining lines, values ahead:

Row | MRC5 IC50 [nM] | Binder
4 | 0.291 | cyclo([Bip(4'-COOH)]W[Phe(4-COOH)]G[Pro(trans-4-NH2)][Trp(βS-Me,4-F)]N[dNMeA]G[Bip(4'-COOH)]KL[dA][hTyr]) (SMILES CC(C)C[C@@H]1NC(=O)[C@H](CCCCN)NC(=O)[C@H](Cc2ccc(-c3ccc(C(=O)O)cc3)cc2)NC(=O)CNC(=O)[C@@H](C)N(C)C(=O)[C@H](CC(N)=O)NC(=O)[C@H]([C@@H](C)c2c[nH]c3cccc(F)c23)NC(=O)[C@@H]2C[C@@H](N)CN2C(=O)CNC(=O)[C@H](Cc2ccc(C(=O)O)cc2)NC(=O)[C@H](Cc2c[nH]c3ccccc23)NC(=O)[C@H](Cc2ccc(-c3ccc(C(=O)O)cc3)cc2)NC(=O)[C@H](CCc2ccc(O)cc2)NC(=O)[C@@H](C)NC1=O) [SEQ ID NO: 80]
5 | 0.189 | cyclo([Bip(4'-COOH)]W[Phe(4-COOH)]G[Pro(trans-4-NH2)][Trp(βS-Me,4-F)]D[dNMeA]G[Bip(4'-COOH)]W[Nva][dA]A) (SMILES CCC[C@@H]1NC(=O)[C@H](Cc2c[nH]c3ccccc23)NC(=O)[C@H](Cc2ccc(-c3ccc(C(=O)O)cc3)cc2)NC(=O)CNC(=O)[C@@H](C)N(C)C(=O)[C@H](CC(=O)O)NC(=O)[C@H]([C@@H](C)c2c[nH]c3cccc(F)c23)NC(=O)[C@@H]2C[C@@H](N)CN2C(=O)CNC(=O)[C@H](Cc2ccc(C(=O)O)cc2)NC(=O)[C@H](Cc2c[nH]c3ccccc23)NC(=O)[C@H](Cc2ccc(-c3ccc(C(=O)O)cc3)cc2)NC(=O)[C@H](C)NC(=O)[C@@H](C)NC1=O) [SEQ ID NO: 79]
